Experimental data taken from patent US20250388643A1, “GLUCAGON-LIKE PEPTIDE-2 COMPOSITIONS AND METHODS OF MAKING AND USING SAME” (Amunix Pharmaceuticals, Inc., priority 2011, published 2025).
Each block holds one molecule with its values, some of them ahead of it.

Experiments:
[1] = molecular target: T1, GLP-2 receptor (GLP2 G-protein coupled receptor) on transfected GLP2R cell line (Millipore, Cat #HTS164C) (human, UniProt O95838 1-553); assay: cell-based or functional assay
T1 sequence (looked up): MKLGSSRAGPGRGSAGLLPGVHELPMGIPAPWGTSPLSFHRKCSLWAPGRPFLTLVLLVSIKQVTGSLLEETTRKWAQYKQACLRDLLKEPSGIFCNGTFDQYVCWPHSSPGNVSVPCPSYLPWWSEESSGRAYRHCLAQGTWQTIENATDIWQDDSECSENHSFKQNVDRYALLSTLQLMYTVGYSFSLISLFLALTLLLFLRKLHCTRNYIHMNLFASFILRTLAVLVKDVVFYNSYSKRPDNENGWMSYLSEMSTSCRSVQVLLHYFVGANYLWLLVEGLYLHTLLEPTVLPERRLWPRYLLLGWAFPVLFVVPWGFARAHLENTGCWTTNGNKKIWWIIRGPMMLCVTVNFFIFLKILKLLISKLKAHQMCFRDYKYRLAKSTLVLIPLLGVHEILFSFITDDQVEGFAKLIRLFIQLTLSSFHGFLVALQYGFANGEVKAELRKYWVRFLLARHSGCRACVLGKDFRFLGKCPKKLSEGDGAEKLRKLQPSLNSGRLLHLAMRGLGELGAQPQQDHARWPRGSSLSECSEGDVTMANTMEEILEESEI

[2] = Analytical size exclusion chromatography of XTEN fusion proteins with diverse payloads; format: physicochemical; details: SEC
Procedure: Size exclusion chromatography analyses were performed on fusion proteins containing various therapeutic proteins and unstructured recombinant proteins of increasing length. […] Chromatogram profiles were monitored using OD214 nm and OD280 nm. Column calibration for all assays were performed using a size exclusion calibration standard from BioRad; the markers include thyroglobulin (670 kDa), bovine gamma-globulin (158 kDa), chicken ovalbumin (44 kDa), equine myoglobuin (17 kDa) and vitamin B12 (1.35 kDa). […] Based on the SEC analyses for all constructs evaluated, the apparent molecular weights, the apparent molecular weight factor (expressed as the ratio of apparent molecular weight to the calculated molecular weight) and the hydrodynamic radius (RH in nm) are shown in Table 23. […] Accordingly, it is expected that fusion proteins comprising growth and XTEN have reduced renal clearance, contributing to increased terminal half-life and improving the therapeutic or biologic effect relative to a corresponding un-fused biologic payload protein.

EC50 (calcium flux, FLIPR TETRA, GLP2R cell line) [1]: 370 nM | potency relative to GLP2-2G (calcium flux, GLP2R cell line) [1]: ~2%
B1: GLP2-2G-XTEN_AE864 fusion protein (ligand)
chain: HGDGSFSDEMNTILDNLAARDFINWLIQTKITDGGSPAGSPTSTEEGTSESATPESGPGTSTEPSEGSAPGSPAGSPTSTEEGTSTEPSEGSAPGTSTEPSEGSAPGTSESATPESGPGSEPATSGSETPGSEPATSGSETPGSPAGSPTSTEEGTSESATPESGPGTSTEPSEGSAPGTSTEPSEGSAPGSPAGSPTSTEEGTSTEPSEGSAPGTSTEPSEGSAPGTSESATPESGPGTSTEPSEGSAPGTSESATPESGPGSEPATSGSETPGTSTEPSEGSAPGTSTEPSEGSAPGTSESATPESGPGTSESATPESGPGSPAGSPTSTEEGTSESATPESGPGSEPATSGSETPGTSESATPESGPGTSTEPSEGSAPGTSTEPSEGSAPGTSTEPSEGSAPGTSTEPSEGSAPGTSTEPSEGSAPGTSTEPSEGSAPGSPAGSPTSTEEGTSTEPSEGSAPGTSESATPESGPGSEPATSGSETPGTSESATPESGPGSEPATSGSETPGTSESATPESGPGTSTEPSEGSAPGTSESATPESGPGSPAGSPTSTEEGSPAGSPTSTEEGSPAGSPTSTEEGTSESATPESGPGTSTEPSEGSAPGTSESATPESGPGSEPATSGSETPGTSESATPESGPGSEPATSGSETPGTSESATPESGPGTSTEPSEGSAPGSPAGSPTSTEEGTSESATPESGPGSEPATSGSETPGTSESATPESGPGSPAGSPTSTEEGSPAGSPTSTEEGTSTEPSEGSAPGTSESATPESGPGTSESATPESGPGTSESATPESGPGSEPATSGSETPGSEPATSGSETPGSPAGSPTSTEEGTSTEPSEGSAPGTSTEPSEGSAPGSEPATSGSETPGTSESATPESGPGTSTEPSEGSAPG

B2: Glucagon-Y288: glucagon fused to unstructured polypeptide Y288 (protein)
chain: HSQGTFTSDYSKYLDSRRAQDFVQWLMNTGGEGSGEGSEGEGSEGSGEGEGSEGSGEGEGGSEGSEGEGGSEGSEGEGGSEGSEGEGSGEGSEGEGGSEGSEGEGSGEGSEGEGSEGGSEGEGGSEGSEGEGSGEGSEGEGGEGGSEGEGSEGSGEGEGSGEGSEGEGSEGSGEGEGSGEGSEGEGSEGSGEGEGSEGSGEGEGGSEGSEGEGSEGSGEGEGGEGSGEGEGSGEGSEGEGGGEGSEGEGSGEGGEGEGSEGGSEGEGGSEGGEGEGSEGSGEGEGSEGGSEGEGSEGGSEGEGSEGSGEGEGSEGSGE
hydrodynamic radius [2]: ≥ 7 nm
